For data set [1], the target named is T1, hβ4GalT7 (GST-β4GalT7) (Homo sapiens, UniProt Q9UBV7).
T1 construct: gene B4GALT7; truncated soluble form lacking the first 60 N-terminal amino acids (transmembrane domain and part of stem), GST fusion (tag kept), pET-41a(+), E. coli BL21(DE3), glutathione-Sepharose purified
T1 sequence (Q9UBV7 61-327): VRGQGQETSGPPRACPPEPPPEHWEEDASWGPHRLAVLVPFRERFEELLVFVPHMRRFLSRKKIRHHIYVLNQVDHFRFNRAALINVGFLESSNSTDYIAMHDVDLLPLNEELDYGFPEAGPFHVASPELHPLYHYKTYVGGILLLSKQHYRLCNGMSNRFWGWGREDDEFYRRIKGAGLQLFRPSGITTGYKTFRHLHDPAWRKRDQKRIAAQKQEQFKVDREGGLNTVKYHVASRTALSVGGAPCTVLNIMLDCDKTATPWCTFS
Nature of the data set: galactosyltransferase competition assay, HPLC-UV. In kind it is biochemical. From the text:
galactosyltransferase competition assay, HPLC-UV on hβ4GalT7 (GST-β4GalT7)

Data set [2] concerns the target T1, hβ4GalT7 (GST-β4GalT7). Nature of the data set: galactosyltransferase competition assay, HPLC-UV. The following applies: 0.5 mM 4-MUX, 1 mM UDP-Gal, 10 mM MnCl2, 100 mM sodium cacodylate pH 7.0, 37 °C; IC50 and Ki not determined. It is filed as biochemical.
Substrate in data set [3]: O=c1ccn([C@@H]2O[C@H](COP(=O)(O)OP(=O)(O)O[C@H]3O[C@H](CO)[C@H](O)[C@H](O)[C@H]3O)[C@@H](O)[C@H]2O)c(=O)[nH]1
The data set is described as follows: galactosyltransferase assay, HPLC-UV. In kind it is biochemical, Homo sapiens. The following applies: apparent, fixed 5 mM 4-MUX, 10 mM MnCl2, 100 mM sodium cacodylate pH 7.0, 37 °C. From the text: (§1) galactosyltransferase assay, HPLC-UV on hβ4GalT7 (GST-β4GalT7)

Substrate in data set [4]: Cc1cc(=O)oc2cc(O[C@@H]3OC[C@@H](O)[C@H](O)[C@H]3O)ccc12
Nature of the data set: galactosyltransferase assay, HPLC-UV. The following applies: apparent, fixed 1 mM UDP-Gal, 10 mM MnCl2, 100 mM sodium cacodylate pH 7.0, 37 °C. It is filed as biochemical, Homo sapiens.
Excerpt: as §1

As a reminder, the IC50 is the concentration that inhibits the measured activity by half. For orientation: Ki means a measure of affinity in units of concentration, obtained from inhibition or displacement. A word on the Km: it is the substrate concentration at which the rate is half of its maximum. In general, kcat refers to the number of substrate molecules converted per active site and unit of time at saturation. In general, kcat/Km refers to the turnover number divided by the Michaelis constant.

Regarding `Cc1cc(=O)oc2cc(O[C@@H]3OCC[C@H](O)[C@H]3O)ccc12` [4H-Xyl-MU, 4-Methylumbelliferyl-4-deoxy-β-D-xylopyranoside], in data set [1], the IC50 was found to be 1280 ± 220 µM and the affinity, expressed as Ki, was 530 ± 100 µM.

As to `O[C@H]1[C@H](Oc2ccc3ccccc3c2)OCC[C@@H]1O` [4H-Xyl-NP, Naphthyl-4-deoxy-β-D-xylopyranoside], the “% decrease of activity at the highest concentration (5 mM)” value in data set [2] is less than 25%.

B1: hβ4GalT7 (GST-β4GalT7) (Homo sapiens; H195R) (protein)
chain: VRGQGQETSGPPRACPPEPPPEHWEEDASWGPHRLAVLVPFRERFEELLVFVPHMRRFLSRKKIRHHIYVLNQVDHFRFNRAALINVGFLESSNSTDYIAMHDVDLLPLNEELDYGFPEAGPFHVASPELHPLYRYKTYVGGILLLSKQHYRLCNGMSNRFWGWGREDDEFYRRIKGAGLQLFRPSGITTGYKTFRHLHDPAWRKRDQKRIAAQKQEQFKVDREGGLNTVKYHVASRTALSVGGAPCTVLNIMLDCDKTATPWCTFS
notes: truncated soluble form lacking the first 60 N-terminal amino acids (transmembrane domain and part of stem), GST fusion (tag kept), pET-41a(+), E. coli BL21(DE3), glutathione-Sepharose purified
As for B1, in data set [3], the Km was found to be 320 ± 20 µM, the turnover number (kcat) turned out to be 1.49 ± 0.0217 s⁻¹ and the kcat/Km amounted to 4920 M⁻¹ s⁻¹. In data set [4], the Km is 350 ± 30 µM, the kcat is 1.49 ± 0.0217 s⁻¹ and the kcat/Km amounted to 4030 M⁻¹ s⁻¹.

B2: hβ4GalT7 (GST-β4GalT7) (Homo sapiens; R270A) (protein)
chain: VRGQGQETSGPPRACPPEPPPEHWEEDASWGPHRLAVLVPFRERFEELLVFVPHMRRFLSRKKIRHHIYVLNQVDHFRFNRAALINVGFLESSNSTDYIAMHDVDLLPLNEELDYGFPEAGPFHVASPELHPLYHYKTYVGGILLLSKQHYRLCNGMSNRFWGWGREDDEFYRRIKGAGLQLFRPSGITTGYKTFRHLHDPAWRKRDQKAIAAQKQEQFKVDREGGLNTVKYHVASRTALSVGGAPCTVLNIMLDCDKTATPWCTFS
notes: as for B1
Regarding B2, in data set [3], the Km came to 270 ± 10 µM, the kcat was 0.773 ± 0.0033 s⁻¹ and the kcat/Km was determined as 3070 M⁻¹ s⁻¹. Also, in data set [4], the Km is 600 ± 20 µM, the turnover number (kcat) was found to be 0.773 ± 0.0033 s⁻¹ and the kcat/Km is 1200 M⁻¹ s⁻¹.

B3: hβ4GalT7 (GST-β4GalT7) (Homo sapiens; R270K) (protein)
chain: VRGQGQETSGPPRACPPEPPPEHWEEDASWGPHRLAVLVPFRERFEELLVFVPHMRRFLSRKKIRHHIYVLNQVDHFRFNRAALINVGFLESSNSTDYIAMHDVDLLPLNEELDYGFPEAGPFHVASPELHPLYHYKTYVGGILLLSKQHYRLCNGMSNRFWGWGREDDEFYRRIKGAGLQLFRPSGITTGYKTFRHLHDPAWRKRDQKKIAAQKQEQFKVDREGGLNTVKYHVASRTALSVGGAPCTVLNIMLDCDKTATPWCTFS
notes: as for B1
Turning to B3, in data set [3], the Km came to 370 ± 20 µM, the kcat came to 0.812 ± 0.025 s⁻¹ and the kcat/Km stood at 2320 M⁻¹ s⁻¹. Also, in data set [4], the Km came out at 540 ± 70 µM, the catalytic constant (kcat) was found to be 0.812 ± 0.025 s⁻¹ and the kcat/Km is 1420 M⁻¹ s⁻¹.

B4: hβ4GalT7 (GST-β4GalT7) (Homo sapiens; Y199F) (protein)
chain: VRGQGQETSGPPRACPPEPPPEHWEEDASWGPHRLAVLVPFRERFEELLVFVPHMRRFLSRKKIRHHIYVLNQVDHFRFNRAALINVGFLESSNSTDYIAMHDVDLLPLNEELDYGFPEAGPFHVASPELHPLYHYKTFVGGILLLSKQHYRLCNGMSNRFWGWGREDDEFYRRIKGAGLQLFRPSGITTGYKTFRHLHDPAWRKRDQKRIAAQKQEQFKVDREGGLNTVKYHVASRTALSVGGAPCTVLNIMLDCDKTATPWCTFS
notes: as for B1
B4: in data set [3], the Km worked out at 320 ± 20 µM, the kcat worked out at 1.2 ± 0.0967 s⁻¹ and the catalytic efficiency (kcat/Km) stood at 4050 M⁻¹ s⁻¹. In data set [4], the Km came out at 590 ± 60 µM, the catalytic constant (kcat) came out at 1.2 ± 0.0967 s⁻¹ and the kcat/Km worked out at 1880 M⁻¹ s⁻¹.

B5: hβ4GalT7 (GST-β4GalT7) (Homo sapiens; R226A) (protein)
chain: VRGQGQETSGPPRACPPEPPPEHWEEDASWGPHRLAVLVPFRERFEELLVFVPHMRRFLSRKKIRHHIYVLNQVDHFRFNRAALINVGFLESSNSTDYIAMHDVDLLPLNEELDYGFPEAGPFHVASPELHPLYHYKTYVGGILLLSKQHYRLCNGMSNRFWGWGAEDDEFYRRIKGAGLQLFRPSGITTGYKTFRHLHDPAWRKRDQKRIAAQKQEQFKVDREGGLNTVKYHVASRTALSVGGAPCTVLNIMLDCDKTATPWCTFS
notes: as for B1
For the molecule B5, in data set [3], the Km was 340 ± 30 µM, the catalytic constant (kcat) turned out to be 0.893 ± 0.0333 s⁻¹ and the kcat/Km was determined as 2850 M⁻¹ s⁻¹. In addition, in data set [4], the Michaelis-Menten constant (Km) came out at 440 ± 50 µM, the kcat is 0.893 ± 0.0333 s⁻¹ and the kcat/Km turned out to be 1870 M⁻¹ s⁻¹.

B6: hβ4GalT7 (GST-β4GalT7) (Homo sapiens; H195A) (protein)
chain: VRGQGQETSGPPRACPPEPPPEHWEEDASWGPHRLAVLVPFRERFEELLVFVPHMRRFLSRKKIRHHIYVLNQVDHFRFNRAALINVGFLESSNSTDYIAMHDVDLLPLNEELDYGFPEAGPFHVASPELHPLYAYKTYVGGILLLSKQHYRLCNGMSNRFWGWGREDDEFYRRIKGAGLQLFRPSGITTGYKTFRHLHDPAWRKRDQKRIAAQKQEQFKVDREGGLNTVKYHVASRTALSVGGAPCTVLNIMLDCDKTATPWCTFS
notes: as for B1
With B6, in data set [3], the Km came out at 400 ± 20 µM, the kcat is 1.932 ± 0.162 s⁻¹ and the kcat/Km is 4850 M⁻¹ s⁻¹. Also, in data set [4], the Km came out at 640 ± 20 µM, the kcat was 1.932 ± 0.162 s⁻¹ and the kcat/Km is 3000 M⁻¹ s⁻¹.

B7: hβ4GalT7 (GST-β4GalT7) (Homo sapiens; R226K) (protein)
chain: VRGQGQETSGPPRACPPEPPPEHWEEDASWGPHRLAVLVPFRERFEELLVFVPHMRRFLSRKKIRHHIYVLNQVDHFRFNRAALINVGFLESSNSTDYIAMHDVDLLPLNEELDYGFPEAGPFHVASPELHPLYHYKTYVGGILLLSKQHYRLCNGMSNRFWGWGKEDDEFYRRIKGAGLQLFRPSGITTGYKTFRHLHDPAWRKRDQKRIAAQKQEQFKVDREGGLNTVKYHVASRTALSVGGAPCTVLNIMLDCDKTATPWCTFS
notes: as for B1
B7: in data set [3], the Km was determined as 290 ± 20 µM, the catalytic constant (kcat) turned out to be 1.35 ± 0.0483 s⁻¹ and the kcat/Km was 4700 M⁻¹ s⁻¹. In data set [4], the Km turned out to be 460 ± 10 µM, the kcat is 1.35 ± 0.0483 s⁻¹ and the catalytic efficiency (kcat/Km) is 2920 M⁻¹ s⁻¹.

B8: hβ4GalT7 (GST-β4GalT7) (Homo sapiens) (protein)
chain: VRGQGQETSGPPRACPPEPPPEHWEEDASWGPHRLAVLVPFRERFEELLVFVPHMRRFLSRKKIRHHIYVLNQVDHFRFNRAALINVGFLESSNSTDYIAMHDVDLLPLNEELDYGFPEAGPFHVASPELHPLYHYKTYVGGILLLSKQHYRLCNGMSNRFWGWGREDDEFYRRIKGAGLQLFRPSGITTGYKTFRHLHDPAWRKRDQKRIAAQKQEQFKVDREGGLNTVKYHVASRTALSVGGAPCTVLNIMLDCDKTATPWCTFS
notes: as for B1
For the molecule B8, in data set [3], the Michaelis-Menten constant (Km) amounted to 220 ± 20 µM, the kcat amounted to 1.51 ± 0.0383 s⁻¹ and the kcat/Km stood at 7080 M⁻¹ s⁻¹. Besides, in data set [4], the Km amounted to 350 ± 20 µM, the kcat came out at 1.51 ± 0.0383 s⁻¹ and the specificity constant (kcat/Km) came out at 4170 M⁻¹ s⁻¹.

B9: hβ4GalT7 (GST-β4GalT7) (Homo sapiens; H195Q) (protein)
chain: VRGQGQETSGPPRACPPEPPPEHWEEDASWGPHRLAVLVPFRERFEELLVFVPHMRRFLSRKKIRHHIYVLNQVDHFRFNRAALINVGFLESSNSTDYIAMHDVDLLPLNEELDYGFPEAGPFHVASPELHPLYQYKTYVGGILLLSKQHYRLCNGMSNRFWGWGREDDEFYRRIKGAGLQLFRPSGITTGYKTFRHLHDPAWRKRDQKRIAAQKQEQFKVDREGGLNTVKYHVASRTALSVGGAPCTVLNIMLDCDKTATPWCTFS
notes: as for B1
For B9, in data set [3], the Km was found to be 330 ± 20 µM, the kcat amounted to 1.62 ± 0.04 s⁻¹ and the specificity constant (kcat/Km) stood at 4920 M⁻¹ s⁻¹. For the same molecule, in data set [4], the Km was found to be 550 ± 20 µM, the kcat worked out at 1.62 ± 0.04 s⁻¹ and the catalytic efficiency (kcat/Km) was determined as 2950 M⁻¹ s⁻¹.

B10: hβ4GalT7 (GST-β4GalT7) (Homo sapiens; Y196F) (protein)
chain: VRGQGQETSGPPRACPPEPPPEHWEEDASWGPHRLAVLVPFRERFEELLVFVPHMRRFLSRKKIRHHIYVLNQVDHFRFNRAALINVGFLESSNSTDYIAMHDVDLLPLNEELDYGFPEAGPFHVASPELHPLYHFKTYVGGILLLSKQHYRLCNGMSNRFWGWGREDDEFYRRIKGAGLQLFRPSGITTGYKTFRHLHDPAWRKRDQKRIAAQKQEQFKVDREGGLNTVKYHVASRTALSVGGAPCTVLNIMLDCDKTATPWCTFS
notes: as for B1
Turning to B10, in data set [3], the Km turned out to be 340 ± 60 µM, the kcat worked out at 0.5 ± 0.0183 s⁻¹ and the kcat/Km was found to be 1470 M⁻¹ s⁻¹. Further, in data set [4], the Km amounted to 1060 ± 60 µM, the kcat stood at 0.5 ± 0.0183 s⁻¹ and the specificity constant (kcat/Km) stood at 467 M⁻¹ s⁻¹.

The record behind these values is PMC4367269, “Probing the Acceptor Active Site Organization of the Human Recombinant β1,4-Galactosyltransferase 7 and Design of Xyloside-based Inhibitors” (The Journal of Biological Chemistry, 2015).
